Assay results published in patent publication EP4541891A1, “NOVEL LRP1-BINDING PEPTIDE” (Ichimaru Pharcos Co., Ltd., priority 2022, dated 2025).
Bridge positions count the residues as written; N and C are the ends. Square brackets hold non-standard residues; d marks the D form. Ends that are not written are not given here. Peptide text beside a SMILES is read from it. * marks the point of attachment. 5FAM = O=C1OC2(c3ccc(O)cc3Oc3cc(O)ccc32)c2ccc(C(=O)*)cc21; Biotin = O=C1N[C@H]2[C@H](CS[C@H]2CCCCC(=O)*)N1; Hyp = O=C(O)[C@@H]1C[C@@H](O)CN1; Nle = CCCC[C@H](N)C(=O)O; Aib = CC(C)(N)C(=O)O

Assays:
[1] = test system: LRP1 cluster 4-Fc chimeric proteins; experiment: Competitive binding assay by ELISA against Sequence 46; conditions: peptide 2,000 nM versus Sequence 46 (500 nM); time point not stated
Procedure: For comparison between the peptide of Sequence 1 with amino acid substitutions and the peptide of Sequence 2 in terms of the LRP1 binding activity and the resistance to protease degradation, a competitive binding assay by ELISA shown in FIG. 2 was constructed. Immediately (zero hour) or 24 hours after the mixing of the peptide of Sequence 2 or the amino acid-substituted peptide with mouse plasma at 37°C, the mixture was diluted to sufficiently lower the plasma concentration to any desired final concentration, and mixed with Sequence 46 (500 nM). This mixture was subjected to the competitive binding assay described above. The binding of Sequence 46 to the LRP1 cluster 4-Fc chimera proteins competes with the binding of Sequence 2 or the amino acid-substituted peptide to the LRP1 cluster 4-Fc chimera proteins, and thus is inhibited depending on the concentration of Sequence 2 or the amino acid-substituted peptide. That is, the binding activity of Sequence 2 or the amino acid-substituted peptide to the LRP1 cluster 4-Fc chimera proteins is detected as competitive inhibitory activity against the binding of Sequence 46. Regarding the binding value of Sequence 46 to the wells in which the LRP1 cluster 4-Fc chimeric proteins were not captured as 100% inhibitory activity and the binding value of Sequence 46 to the wells in which Sequence 2 or the amino acid-substituted peptide was not added as 0% inhibitory activity, the inhibitory activity values of Sequence 2 and the amino acid-substituted peptide were calculated in %.
Sequence 2 incubated with plasma for zero hour inhibited the binding of Sequence 46 in a concentration-dependent manner. […] However, the binding of Sequence 46 (500 nM) in wells loaded with 2,000 nM equivalent Sequence 2 averaged 50.6%.
Immediately or 24 hours after Sequences 1 to 44 were mixed with mouse plasma at 37°C, the mixtures were diluted to sufficiently lower the plasma concentration to a final concentration of 2,000 nM, and mixed with Sequence 46 (500 nM). The obtained mixtures were subjected to the above-described competitive binding assay. […] Other sequences tended to have diminished inhibitory activities.

[2] = molecular target: LRP1 cluster 4-Fc chimeric proteins (UniProt Q07954); experiment: ELISA, LRP1 cluster 4-Fc captured, biotin peptide detected with SA-HRP
UniProt Q07954, sequence (Q07954 3293-3783, stated change not applied): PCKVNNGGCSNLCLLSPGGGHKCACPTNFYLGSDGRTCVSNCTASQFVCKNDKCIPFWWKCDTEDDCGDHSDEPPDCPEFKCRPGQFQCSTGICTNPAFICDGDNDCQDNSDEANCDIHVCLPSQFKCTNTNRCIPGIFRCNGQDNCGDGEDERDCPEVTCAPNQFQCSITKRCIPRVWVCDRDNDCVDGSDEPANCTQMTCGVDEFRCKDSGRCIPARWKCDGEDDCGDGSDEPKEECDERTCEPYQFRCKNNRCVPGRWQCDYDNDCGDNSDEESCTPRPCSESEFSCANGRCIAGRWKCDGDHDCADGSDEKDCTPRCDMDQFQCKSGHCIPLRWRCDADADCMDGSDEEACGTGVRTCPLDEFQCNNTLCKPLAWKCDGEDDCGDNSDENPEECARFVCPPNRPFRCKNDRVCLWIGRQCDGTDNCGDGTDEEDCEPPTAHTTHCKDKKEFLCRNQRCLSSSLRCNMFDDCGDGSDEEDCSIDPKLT

[3] = molecular target: LRP1 cluster 4-Fc chimeric proteins (UniProt Q07954); experiment: competitive ELISA, LRP1 cluster 4-Fc captured; peptide 2,000 nM against biotin-Sequence 46 500 nM

CCCC[C@@H]1NC(=O)[C@H](CCC(=O)O)NC(=O)C(C)(C)NC(=O)[C@H](CC(C)C)NC(=O)[C@H](CCCC)NC(=O)[C@H](Cc2ccc(O)cc2)NC(=O)[C@H](CCCCN)NC(=O)[C@H](Cc2ccc(O)cc2)NC(=O)[C@H]([C@@H](C)O)NC(=O)[C@@H](NC(=O)[C@@H]2CCCN2C(=O)[C@@H](NC(=O)CNC(=O)[C@H](CCCCNC(=O)c2ccc3c(c2)C(=O)OC32c3ccc(O)cc3Oc3cc(O)ccc32)NC(C)=O)[C@@H](C)O)CSSC[C@@H](C(=O)O)NC1=O [Sequence 34, Ac-Lys(5FAM)-Gly-Thr-Pro-c(Cys-Thr-Tyr-Lys-Tyr-Nle-Leu-Aib-Glu-Nle-Cys)-OH] (Ac-K(5FAM)GTPCTYKY[Nle]L[Aib]E[Nle]C-OH; disulfide 5-15)
inhibitory activity [1]: 82.0%

Ac-Lys(5FAM)-Gly-Thr-Pro-Cys-Thr-Tyr-Lys-Tyr-Nle-Leu-Ala-Glu-Nle-Cys)-OH (Ac-K(5FAM)GTPCTYKY[Nle]LAE[Nle]C-OH; not fully specified (bridges); printed as Ac-Lys(5FAM)-Gly-Thr-Pro-Cys-Thr-Tyr-Lys-Tyr-Nle-Leu-Ala-Glu-Nle-Cys)-OH; also: cyclic, bridge type not given here) [Sequence 1]
inhibitory activity [1]: 70.7%

Ac-Lys(5FAM)-Gly-Thr-Pro-c(^DCys-Thr-Tyr-Lys-Tyr-Nle-Leu-Ala-Glu-Nle-Cys)-OH (KGTPCTYKYXLAEXC; N-acetyl, Lys(5FAM), cyclic, D-residue, Nle residues; CROSSLNK 5..15: note = methylene thioactal (-S-CH2-S-); SITE 5: note = D-Cys; SITE 10: note = Nle; SITE 14: note = Nle; MOD_RES 1: note = N-acetyllysine labeled with 5-FAM) [Sequence 7]
inhibitory activity [1]: 87.6%

CCCC[C@@H]1NC(=O)[C@H](CCC(=O)O)NC(=O)[C@H](C)NC(=O)[C@H](CC(C)C)NC(=O)[C@H](CCCC)NC(=O)[C@H](Cc2ccc(O)cc2)NC(=O)[C@H](CCCCN)NC(=O)[C@H](Cc2ccc(O)cc2)NC(=O)[C@H]([C@@H](C)O)NC(=O)[C@H](NC(=O)[C@@H]2CCCN2C(=O)[C@@H](NC(=O)CNC(=O)[C@H](CCCCNC(=O)c2ccc3c(c2)C(=O)OC32c3ccc(O)cc3Oc3cc(O)ccc32)NC(C)=O)[C@@H](C)O)CSSC[C@@H](C(=O)O)NC1=O [Sequence 6, Ac-Lys(5FAM)-Gly-Thr-Pro-c(^DCys-Thr-Tyr-Lys-Tyr-Nle-Leu-Ala-Glu-Nle-Cys)-OH] (Ac-K(5FAM)GTP[dC]TYKY[Nle]LAE[Nle]C-OH; disulfide 5-15)
inhibitory activity [1]: 91.9%

CCCC[C@@H]1NC(=O)[C@H](Cc2ccc(O)cc2)NC(=O)[C@H](CCCCN)NC(=O)[C@H](Cc2ccc(O)cc2)NC(=O)[C@H]([C@@H](C)O)NC(=O)[C@@H](NC(=O)[C@@H]2CCCN2C(=O)[C@@H](NC(=O)CNC(=O)[C@H](CCCCNC(=O)c2ccc3c(c2)C(=O)OC32c3ccc(O)cc3Oc3cc(O)ccc32)NC(C)=O)[C@@H](C)O)CSSC[C@@H](C(=O)O)NC(=O)[C@@H]2CCCN2C(=O)[C@H](CCCC)NC(=O)[C@H](CCC(=O)O)NC(=O)[C@H](C)NC(=O)[C@H](CC(C)C)NC1=O [Sequence 43, Ac-Lys(5FAM)-Gly-Thr-Pro-c(Cys-Thr-Tyr-Lys-Tyr-Nle-Leu-Ala-Glu-Nle-Pro-Cys)-OH] (Ac-K(5FAM)GTPCTYKY[Nle]LAE[Nle]PC-OH; disulfide 5-16)
inhibitory activity [1]: 83.5%

Ac-Lys(5FAM)-Gly-Thr-Pro-Cys-Thr-Tyr-Lys-Tyr-Nle-Leu-Ala-Glu-Nle-^DCys-OH (Ac-K(5FAM)GTPCTYKY[Nle]LAE[Nle][dC]-OH; cysteine pairing not given here) [Sequence 9]
inhibitory activity [1]: 85.8%

CCCC[C@@H]1NC(=O)[C@H](CCC(=O)O)NC(=O)[C@H](C)NC(=O)[C@H](CC(C)C)NC(=O)[C@H](CCCC)NC(=O)[C@H](Cc2ccc(O)cc2)NC(=O)[C@H](CCCNC(=N)N)NC(=O)[C@H](Cc2ccc(O)cc2)NC(=O)[C@H]([C@@H](C)O)NC(=O)[C@@H](NC(=O)[C@@H]2CCCN2C(=O)[C@@H](NC(=O)CNC(=O)[C@H](CCCCNC(=O)c2ccc3c(c2)C(=O)OC32c3ccc(O)cc3Oc3cc(O)ccc32)NC(C)=O)[C@@H](C)O)CSSC[C@@H](C(=O)O)NC1=O [Sequence 24, Ac-Lys(5FAM)-Gly-Thr-Pro-c(Cys-Thr-Tyr-Arg-Tyr-Nle-Leu-Ala-Glu-Nle-Cys)-OH] (Ac-K(5FAM)GTPCTYRY[Nle]LAE[Nle]C-OH; disulfide 5-15)
inhibitory activity [1]: 77.4%

B1: SEQUENCE 45 (peptide)
peptide: Ac-K(Biotin)GTPCTYKY[Nle]LAE[Nle]C
modifications: cysteine pairing not given here
EC50 [2]: 10.5 nM

B2: SEQUENCE 1 (peptide)
peptide: Ac-K(5FAM)GTPCTYKY[Nle]LAE[Nle]C
modifications: cysteine pairing not given here
inhibitory activity (%) [3]: 70.7%

B3: SEQUENCE 6 (peptide)
peptide: Ac-K(5FAM)GTP[dC]TYKY[Nle]LAE[Nle]C
modifications: disulfide 5-15
inhibitory activity (%) [3]: 91.9%

B4: SEQUENCE 7 (peptide)
peptide: Ac-K(5FAM)GTP[dC]TYKY[Nle]LAE[Nle]C
modifications: bridge 5-15 via S‑C‑S (methylene)
inhibitory activity (%) [3]: 87.6%

B5: SEQUENCE 9 (peptide)
peptide: Ac-K(5FAM)GTPCTYKY[Nle]LAE[Nle][dC]
modifications: cysteine pairing not given here
inhibitory activity (%) [3]: 85.8%

B6: SEQUENCE 19 (peptide)
peptide: Ac-K(5FAM)GTPC[Hyp]YKY[Nle]LAE[Nle]C
modifications: disulfide 5-15
inhibitory activity (%) [3]: 79.1%

B7: SEQUENCE 24 (peptide)
peptide: Ac-K(5FAM)GTPCTYRY[Nle]LAE[Nle]C
modifications: disulfide 5-15
inhibitory activity (%) [3]: 77.4%

B8: SEQUENCE 34 (peptide)
peptide: Ac-K(5FAM)GTPCTYKY[Nle]L[Aib]E[Nle]C
modifications: disulfide 5-15
inhibitory activity (%) [3]: 82%

B9: SEQUENCE 43 (peptide)
peptide: Ac-K(5FAM)GTPCTYKY[Nle]LAE[Nle]PC
modifications: disulfide 5-16
inhibitory activity (%) [3]: 83.5%

B10: SEQUENCE 46 (peptide)
peptide: Ac-K(Biotin)GTPCTYKY[Nle]LAE[Nle]C
modifications: disulfide 5-15
EC50 [2]: 11 nM
